Laboratory results as given in the supplement of paper PMC9112550, “Optimization of the antimicrobial peptide Bac7 by deep mutational scanning” (BMC Biology, 2022).

Test system: Escherichia coli TOP10
Test: shrunken log2 fold change of peptide-encoding DNA abundance (4.5 h post-induction vs induction); higher = less antimicrobial activity (less host growth inhibition)
Conditions: time post-induction: 4.5 h; library: site-saturation at positions 5, 18, 19, 20
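Note: peptides expressed intracellularly from a pBAD plasmid library in pooled LB shake-flask culture, induced with 0.3% L-arabinose, DNA abundance read by NGS, three biological replicates, DESeq2 with apeglm shrinkage.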

| Sequence | shrunken log2 fold change |
| --- | --- |
| RRIRPRPPRLPRPRPRPNLGPRP | -0.242 |
| RRIRRRPPRLPRPRPRPAKGPRP | -0.0594 |
| RRIRFRPPRLPRPRPRPMWQPRP | -0.00366 |
| RRIRMRPPRLPRPRPRPNGHPRP | -0.00897 |
| RRIRFRPPRLPRPRPRPYLCPRP | -0.477 |
| RRIRGRPPRLPRPRPRPYPFPRP | -0.164 |
| RRIRTRPPRLPRPRPRPEVCPRP | 0.212 |
| RRIRDRPPRLPRPRPRPPPKPRP | 1.09 |
| RRIRHRPPRLPRPRPRPDIMPRP | -0.261 |
| RRIRGRPPRLPRPRPRPSTLPRP | 0.152 |
| RRIRCRPPRLPRPRPRPEKHPRP | 0.00607 |
| RRIRQRPPRLPRPRPRPHFYPRP | -0.229 |
| RRIRQRPPRLPRPRPRPAVLPRP | 0.0386 |
| RRIRHRPPRLPRPRPRPGGEPRP | 0.183 |
| RRIRYRPPRLPRPRPRPEKYPRP | -0.00973 |
| RRIRGRPPRLPRPRPRPNQSPRP | 0.17 |
| RRIRRRPPRLPRPRPRPVGYPRP | 0.02 |
| RRIRLRPPRLPRPRPRPVPKPRP | 0.282 |
| RRIRARPPRLPRPRPRPGDSPRP | 0.339 |
| RRIRVRPPRLPRPRPRPEEQPRP | 0.0234 |
| RRIRYRPPRLPRPRPRPSENPRP | -0.235 |
| RRIRKRPPRLPRPRPRPLFDPRP | -0.0965 |
| RRIRMRPPRLPRPRPRPQRYPRP | -0.00185 |
| RRIRSRPPRLPRPRPRPAKGPRP | 0.176 |
| RRIRMRPPRLPRPRPRPCWWPRP | 0.0436 |

| Sequence | shrunken log2 fold change |
| --- | --- |
| RRIRRRPPRLPRPRPRPREPPRP | 1.04 |
| RRIRFRPPRLPRPRPRPNYIPRP | -0.587 |
| RRIRLRPPRLPRPRPRPLWCPRP | 0.159 |
| RRIRWRPPRLPRPRPRPIVTPRP | 0.0938 |
| RRIRHRPPRLPRPRPRPDIEPRP | 0.0242 |
| RRIRRRPPRLPRPRPRPYTSPRP | -0.313 |
| RRIRARPPRLPRPRPRPIDLPRP | 0.289 |
| RRIRYRPPRLPRPRPRPRTGPRP | -0.0225 |
| RRIRFRPPRLPRPRPRPTAFPRP | 0.0899 |
| RRIRVRPPRLPRPRPRPERYPRP | 0.133 |
| RRIRCRPPRLPRPRPRPINVPRP | -0.307 |
| RRIRWRPPRLPRPRPRPKIGPRP | -0.0273 |
| RRIRRRPPRLPRPRPRPETPPRP | 1.12 |
| RRIRHRPPRLPRPRPRPSQRPRP | -0.102 |
| RRIRLRPPRLPRPRPRPVFCPRP | 0.14 |
| RRIRARPPRLPRPRPRPPSGPRP | 0.597 |
| RRIRKRPPRLPRPRPRPNKWPRP | -0.0156 |
| RRIRGRPPRLPRPRPRPAYDPRP | 0.326 |
| RRIRHRPPRLPRPRPRPCYGPRP | -0.238 |
| RRIRARPPRLPRPRPRPNNVPRP | -0.0632 |
| RRIRYRPPRLPRPRPRPDWWPRP | 0.0124 |
| RRIRERPPRLPRPRPRPMNTPRP | -0.0609 |
| RRIRGRPPRLPRPRPRPEASPRP | 0.708 |
| RRIRGRPPRLPRPRPRPLYDPRP | 0.135 |
| RRIRRRPPRLPRPRPRPKSLPRP | 0.0308 |

| Sequence | shrunken log2 fold change |
| --- | --- |
| RRIRCRPPRLPRPRPRPVPQPRP | 0.0921 |
| RRIRHRPPRLPRPRPRPRLLPRP | -0.113 |
| RRIRPRPPRLPRPRPRPHSQPRP | -0.134 |
| RRIRRRPPRLPRPRPRPTVNPRP | 0.15 |
| RRIRHRPPRLPRPRPRPMHYPRP | -0.289 |
| RRIRSRPPRLPRPRPRPPRNPRP | 0.415 |
| RRIRFRPPRLPRPRPRPLYSPRP | -0.211 |
| RRIRSRPPRLPRPRPRPAICPRP | 0.147 |
| RRIRSRPPRLPRPRPRPWYAPRP | -0.253 |
| RRIRNRPPRLPRPRPRPVRKPRP | 0.128 |
| RRIRDRPPRLPRPRPRPIMRPRP | 0.225 |
| RRIRERPPRLPRPRPRPYKVPRP | -0.0366 |
| RRIRYRPPRLPRPRPRPASMPRP | 0.0167 |
| RRIRNRPPRLPRPRPRPNFFPRP | 0.0771 |
| RRIRFRPPRLPRPRPRPLRFPRP | 0.186 |
| RRIRQRPPRLPRPRPRPQGMPRP | 0.0331 |
| RRIRIRPPRLPRPRPRPLINPRP | -0.444 |
| RRIRVRPPRLPRPRPRPQEMPRP | 0.0818 |
| RRIRYRPPRLPRPRPRPPDFPRP | -0.136 |
| RRIRFRPPRLPRPRPRPRQSPRP | 0.443 |
| RRIRKRPPRLPRPRPRPQLGPRP | 0.378 |
| RRIRTRPPRLPRPRPRPMDIPRP | -0.00738 |
| RRIRKRPPRLPRPRPRPHIPPRP | -0.247 |
| RRIRRRPPRLPRPRPRPSQSPRP | 0.121 |
| RRIRERPPRLPRPRPRPYDRPRP | 0.0251 |

| Sequence | shrunken log2 fold change |
| --- | --- |
| RRIRGRPPRLPRPRPRPRRGPRP | 0.813 |
| RRIRKRPPRLPRPRPRPSTPPRP | 0.0478 |
| RRIRIRPPRLPRPRPRPFNKPRP | -0.179 |
| RRIRRRPPRLPRPRPRPPAKPRP | 1.35 |
| RRIRKRPPRLPRPRPRPDFSPRP | 0.0114 |
| RRIRVRPPRLPRPRPRPQINPRP | -0.0064 |
| RRIRARPPRLPRPRPRPFGCPRP | 0.128 |
| RRIRCRPPRLPRPRPRPSAEPRP | 0.153 |
| RRIRVRPPRLPRPRPRPAVGPRP | 0.186 |
| RRIRRRPPRLPRPRPRPHHVPRP | 0.296 |
| RRIRVRPPRLPRPRPRPVAWPRP | 0.421 |
| RRIRLRPPRLPRPRPRPKYYPRP | -1.1 |
| RRIRRRPPRLPRPRPRPILCPRP | 0.48 |
| RRIRTRPPRLPRPRPRPPFSPRP | 0.0411 |
| RRIRIRPPRLPRPRPRPAIPPRP | -0.169 |
| RRIRPRPPRLPRPRPRPGYDPRP | -0.0887 |
| RRIRFRPPRLPRPRPRPGWAPRP | 0.187 |
| RRIRCRPPRLPRPRPRPRTQPRP | 0.323 |
| RRIRARPPRLPRPRPRPYPVPRP | -0.191 |
| RRIRDRPPRLPRPRPRPPKFPRP | -0.154 |
| RRIRYRPPRLPRPRPRPMFWPRP | -0.0534 |
| RRIRVRPPRLPRPRPRPVEKPRP | 0.265 |
| RRIRKRPPRLPRPRPRPFTVPRP | -0.00947 |
| RRIRCRPPRLPRPRPRPLVKPRP | -0.0116 |
| RRIRIRPPRLPRPRPRPNQIPRP | -0.713 |

| Sequence | shrunken log2 fold change |
| --- | --- |
| RRIRHRPPRLPRPRPRPEMRPRP | 0.122 |
| RRIRFRPPRLPRPRPRPWINPRP | -0.0461 |
| RRIRERPPRLPRPRPRPYFFPRP | -0.587 |
| RRIRMRPPRLPRPRPRPLGRPRP | 0.723 |
| RRIRKRPPRLPRPRPRPLMAPRP | 0.635 |
| RRIRFRPPRLPRPRPRPHLRPRP | -0.19 |
| RRIRCRPPRLPRPRPRPWESPRP | 0.0539 |
| RRIRFRPPRLPRPRPRPAMRPRP | 0.307 |
| RRIRQRPPRLPRPRPRPWVDPRP | 0.0234 |
| RRIRQRPPRLPRPRPRPQMQPRP | 0.131 |
| RRIRGRPPRLPRPRPRPKHHPRP | 0.309 |
| RRIRIRPPRLPRPRPRPLGKPRP | -0.248 |
| RRIRARPPRLPRPRPRPPENPRP | 0.576 |
| RRIRQRPPRLPRPRPRPTFEPRP | -0.177 |
| RRIRWRPPRLPRPRPRPEFDPRP | 0.198 |
| RRIRYRPPRLPRPRPRPPERPRP | 0.251 |
| RRIRPRPPRLPRPRPRPWDGPRP | -0.0681 |
| RRIRHRPPRLPRPRPRPQVWPRP | -0.112 |
| RRIRYRPPRLPRPRPRPVNNPRP | -1.68 |
| RRIRARPPRLPRPRPRPEIQPRP | 1.71 |
| RRIRFRPPRLPRPRPRPWRPPRP | 0.275 |
| RRIRFRPPRLPRPRPRPRSCPRP | 0.155 |
| RRIRLRPPRLPRPRPRPFRFPRP | -0.212 |
| RRIRPRPPRLPRPRPRPKSYPRP | -0.0208 |
| RRIRDRPPRLPRPRPRPTAAPRP | 0.457 |

| Sequence | shrunken log2 fold change |
| --- | --- |
| RRIRMRPPRLPRPRPRPCDIPRP | -0.151 |
| RRIRPRPPRLPRPRPRPLQQPRP | 0.176 |
| RRIRHRPPRLPRPRPRPHFDPRP | -0.107 |
| RRIRSRPPRLPRPRPRPYMAPRP | -0.539 |
| RRIRKRPPRLPRPRPRPFQQPRP | 0.202 |
| RRIRIRPPRLPRPRPRPYWTPRP | -0.18 |
| RRIRTRPPRLPRPRPRPLEKPRP | 0.419 |
| RRIRTRPPRLPRPRPRPKTSPRP | -0.0907 |
| RRIRWRPPRLPRPRPRPDHQPRP | -0.197 |
| RRIRERPPRLPRPRPRPTWNPRP | -0.167 |
| RRIRRRPPRLPRPRPRPPVNPRP | 0.282 |
| RRIRPRPPRLPRPRPRPLWLPRP | -0.0275 |
| RRIRSRPPRLPRPRPRPKEQPRP | -0.0517 |
| RRIRPRPPRLPRPRPRPTLVPRP | 0.114 |
| RRIRLRPPRLPRPRPRPQDLPRP | -0.0513 |
| RRIRMRPPRLPRPRPRPIQFPRP | -0.318 |
| RRIRERPPRLPRPRPRPHPKPRP | 0.0177 |
| RRIRHRPPRLPRPRPRPCMVPRP | -0.342 |
| RRIRDRPPRLPRPRPRPMTMPRP | -0.00418 |
| RRIRGRPPRLPRPRPRPFRIPRP | -0.212 |
| RRIRRRPPRLPRPRPRPNEHPRP | -0.118 |
| RRIRMRPPRLPRPRPRPIWYPRP | -0.158 |
| RRIRYRPPRLPRPRPRPAMSPRP | -0.0191 |
| RRIRSRPPRLPRPRPRPPAEPRP | 2.3 |
| RRIRQRPPRLPRPRPRPSDGPRP | -0.0586 |
